Article PMC5611513, “Structure-Based Prototype Peptides Targeting the Pseudomonas aeruginosa Type VI Secretion System Effector as a Novel Antibacterial Strategy” (Frontiers in Cellular and Infection Microbiology, 2017)

Tested on: E. coli BL21 (DE3)
Assay: Cell-toxicity assay, spot growth on LB agar
Format: cell-based, Escherichia coli
Conditions: E. coli BL21 (DE3), 0.045 mM IPTG, 24 h
Description: Cell-toxicity assay was carried as previously described with minor modification (Jiang et al., [2016]). […] A 2 μl bacterial dilution was spotted onto LB agar plate containing 0.045 mM IPTG. Images were taken after 24 h growth.
(A) Diagrams of TplE, TplE-TplEi and “L” peptide expressing constructs. Expression of vector sequence and “L” peptide mutant with the PelB signal peptide was used as a control. […] A 10-fold serial dilution of overnight culture was spotted on LB agar plates from left to right. The experiments were performed at least 3 times.

Row | Molecule | growth of E. coli on periplasmic expression of TplE (periplasmic-targeted TplE alone) | effect of co-expression of TplEi on TplE-dependent growth inhibition (TplE-TplEi co-expressed)
1 | TplE: H2-T6SS-dependent antibacterial lipolytic toxin (lipase effector) of P. aeruginosa (protein) MSSEPLEPNQDVIIPRSRDSLGRPVYKAQLTRTDNQSEKVALIRQTAPLPVIFIPGIMGTNLRNKADKSEVWRPPNGLWPMDDLFASIGALWTWAWRGPKARQELLKAEQVEVDDQGTIDVGQSGLSEEAARLRGWGKVMRSAYNPVMGLMERRLDNIVSRRELQAWWNDEALSPPGDQGEEQGKVGPIDEEELLRASRYQFDVWCAGYNWLQSNRQSALDVRDYIENTVLPFYQKECGLDPEQMRRMKVILVTHSMGGLVARALTQLHGYERVLGVVHGVQPATGSSTIYHHMRCGYEGIAQVVLGRNAGEVTAIVANSAGALELAPSAEYREGRPWLFLCDAQGQVLKDIDGKPRAYPQNQDPYEEIYKNTTWYGLVPEQNSQYLDMSDKKEGLRVGPRDNFEDLIDSIANFHGELSAAGYHSETYAHYGADDSRHSWRDLIWKGDPTPLETPGATLNDDENGTYNSWFRRGLPTIVQGPLETGNPLDASGSGGDETVPTDSGQAPALAGVKASFRHGSKGKGQANTKRGYEHQESYNDARAQWAALYGVIKITQLADWHPNDKGGT | significant inhibition of growth | 
2 | TplEi: cognate periplasmic immunity protein that neutralizes TplE (protein) CTSFSSSRSSSMDKTGWITHCFGRFLIDLPPDAVINAGYYLWGDRIEYLDDKPTELAARVDRLEQEWRTQRHKSKGNMFLRKIDFGNESVGLLSWSSEVASKTYLLDTYVTSKPTWHVYRWKGKVSVDREQHAVEISRALARNLRSRAPKEIPSEPGFCIDHAYIAGDSFQVERFGVGVTFPEHPGARFEFRSSTGAELNSLLERVDGFVQNMLSTFAGMETLRKGKHPVGSLPGEEYLVAGSDKGQRGYTFMWEVQGKEESLTEPNLTAGLAVLERSNENGKPPPPAFKSDKEALELWDTIVDSIRVRPTSSSPRGGNAGPSPAPKPATPGGQTLGDHYVYEEFLSSLKPKDSWLDDL |  | repressed the TplE-dependent growth inhibition
